Assay results published in patent US20150344570A1 (published 2015).

T1: FcγRIIa R extracellular domain with C-terminal His tag (human, UniProt P12318 34-217)
T1 construct: extracellular domain; also called FcgRIIa R; 2aR; not shown: His tag at the C terminus
T1 sequence (looked up): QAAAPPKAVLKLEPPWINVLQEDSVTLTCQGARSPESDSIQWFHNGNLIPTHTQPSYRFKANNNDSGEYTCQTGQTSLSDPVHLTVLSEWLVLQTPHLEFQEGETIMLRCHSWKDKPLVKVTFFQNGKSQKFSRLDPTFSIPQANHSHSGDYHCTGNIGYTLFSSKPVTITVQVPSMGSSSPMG

B1: GpH7-A5/GpH7-B3 variant P331_16H/GpL16-k0 (antibody, human IgG1, kappa)
heavy 1: not shown
heavy 2: not shown
light: DIVMTQSPLSLPVTPGEPASISCQASESLVHSNRNTYLHWYLQKPGQSPQLLIYKVSNRFSGVPDRFSGSGSGTDFTLKISRVEAEDVGVYYCSQNTHVPPTFGQGTKVEIERTVAAPSVFIFPPSDEQLKSGTASVVCLLNNFYPREAKVQWKVDNALQSGNSQESVTEQDSKDSTYSLSSTLTLSKADYEKHKVYACEVTHQGLSSPVTKSFNRGEC
notes: heterodimerized: alteration in one H chain only; also called He Ab P331_16H
B2: GpH7-A5/GpH7-B3 variant P331_20W/GpL16-k0 (antibody, human IgG1, kappa)
heavy 1: not shown
heavy 2: not shown
light: B1 light
notes: heterodimerized: alteration in one H chain only; also called He Ab P331_20W
B3: GpH7-A5/GpH7-B3 variant S239_08L/GpL16-k0 (antibody, human IgG1, kappa)
heavy 1: not shown
heavy 2: not shown
light: B1 light
notes: heterodimerized: alteration in one H chain only; also called He Ab S239_08L
B4: GpH7-A5/GpH7-B3 variant S239_10E/GpL16-k0 (antibody, human IgG1, kappa)
heavy 1: not shown
heavy 2: not shown
light: B1 light
notes: heterodimerized: alteration in one H chain only; also called He Ab S239_10E
B5: GpH7-A5/GpH7-B3 variant S239_18N/GpL16-k0 (antibody, human IgG1, kappa)
heavy 1: not shown
heavy 2: not shown
light: B1 light
notes: heterodimerized: alteration in one H chain only; also called He Ab S239_18N
B6: GpH7-A5/GpH7-B3 variant S267_03V/GpL16-k0 (antibody, human IgG1, kappa)
heavy 1: not shown
heavy 2: not shown
light: B1 light
notes: heterodimerized: alteration in one H chain only; also called He Ab S267_03V
B7: GpH7-A5/GpH7-B3 variant S267_06M/GpL16-k0 (antibody, human IgG1, kappa)
heavy 1: not shown
heavy 2: not shown
light: B1 light
notes: heterodimerized: alteration in one H chain only; also called He Ab S267_06M
B8: GpH7-A5/GpH7-B3 variant S267_09D/GpL16-k0 (antibody, human IgG1, kappa)
heavy 1: not shown
heavy 2: not shown
light: B1 light
notes: heterodimerized: alteration in one H chain only; also called He Ab S267_09D
B9: GpH7-A5/GpH7-B3 variant S267_19Q/GpL16-k0 (antibody, human IgG1, kappa)
heavy 1: not shown
heavy 2: not shown
light: B1 light
notes: heterodimerized: alteration in one H chain only; also called He Ab S267_19Q
B10: GpH7-A5/GpH7-B3 variant S298_08L/GpL16-k0 (antibody, human IgG1, kappa)
heavy 1: not shown
heavy 2: not shown
light: B1 light
notes: heterodimerized: alteration in one H chain only; also called He Ab S298_08L
B11: GpH7-A5/GpH7-B3 variant S324_06M/GpL16-k0 (antibody, human IgG1, kappa)
heavy 1: not shown
heavy 2: not shown
light: B1 light
notes: heterodimerized: alteration in one H chain only; also called He Ab S324_06M
B12: GpH7-A5/GpH7-B3 variant S337_03V/GpL16-k0 (antibody, human IgG1, kappa)
heavy 1: not shown
heavy 2: not shown
light: B1 light
notes: heterodimerized: alteration in one H chain only; also called He Ab S337_03V
B13: GpH7-A5/GpH7-B3 variant S337_06M/GpL16-k0 (antibody, human IgG1, kappa)
heavy 1: not shown
heavy 2: not shown
light: B1 light
notes: heterodimerized: alteration in one H chain only; also called He Ab S337_06M
B14: GpH7-A5/GpH7-B3 variant S337_07I/GpL16-k0 (antibody, human IgG1, kappa)
heavy 1: not shown
heavy 2: not shown
light: B1 light
notes: heterodimerized: alteration in one H chain only; also called He Ab S337_07I
B15: GpH7-A5/GpH7-B3 variant S337_09D/GpL16-k0 (antibody, human IgG1, kappa)
heavy 1: not shown
heavy 2: not shown
light: B1 light
notes: heterodimerized: alteration in one H chain only; also called He Ab S337_09D
B16: GpH7-A5/GpH7-B3 variant S337_10E/GpL16-k0 (antibody, human IgG1, kappa)
heavy 1: not shown
heavy 2: not shown
light: B1 light
notes: heterodimerized: alteration in one H chain only; also called He Ab S337_10E
B17: GpH7-A5/GpH7-B3 variant S337_15Y/GpL16-k0 (antibody, human IgG1, kappa)
heavy 1: not shown
heavy 2: not shown
light: B1 light
notes: heterodimerized: alteration in one H chain only; also called He Ab S337_15Y
B18: GpH7-A5/GpH7-B3 variant S337_16H/GpL16-k0 (antibody, human IgG1, kappa)
heavy 1: not shown
heavy 2: not shown
light: B1 light
notes: heterodimerized: alteration in one H chain only; also called He Ab S337_16H
B19: GpH7-A5/GpH7-B3 variant S337_18N/GpL16-k0 (antibody, human IgG1, kappa)
heavy 1: not shown
heavy 2: not shown
light: B1 light
notes: heterodimerized: alteration in one H chain only; also called He Ab S337_18N
B20: GpH7-A5/GpH7-B3 variant S337_19Q/GpL16-k0 (antibody, human IgG1, kappa)
heavy 1: not shown
heavy 2: not shown
light: B1 light
notes: heterodimerized: alteration in one H chain only; also called He Ab S337_19Q
B21: GpH7-A5/GpH7-B3 variant S337_20W/GpL16-k0 (antibody, human IgG1, kappa)
heavy 1: not shown
heavy 2: not shown
light: B1 light
notes: heterodimerized: alteration in one H chain only; also called He Ab S337_20W
B22: GpH7-A5/GpH7-B3 variant T335_02A/GpL16-k0 (antibody, human IgG1, kappa)
heavy 1: not shown
heavy 2: not shown
light: B1 light
notes: heterodimerized: alteration in one H chain only; also called He Ab T335_02A
B23: GpH7-A5/GpH7-B3 variant T335_05P/GpL16-k0 (antibody, human IgG1, kappa)
heavy 1: not shown
heavy 2: not shown
light: B1 light
notes: heterodimerized: alteration in one H chain only; also called He Ab T335_05P
B24: GpH7-A5/GpH7-B3 variant T335_07I/GpL16-k0 (antibody, human IgG1, kappa)
heavy 1: not shown
heavy 2: not shown
light: B1 light
notes: heterodimerized: alteration in one H chain only; also called He Ab T335_07I
B25: GpH7-A5/GpH7-B3 variant T335_10E/GpL16-k0 (antibody, human IgG1, kappa)
heavy 1: not shown
heavy 2: not shown
light: B1 light
notes: heterodimerized: alteration in one H chain only; also called He Ab T335_10E
B26: GpH7-A5/GpH7-B3 variant T335_13S/GpL16-k0 (antibody, human IgG1, kappa)
heavy 1: not shown
heavy 2: not shown
light: B1 light
notes: heterodimerized: alteration in one H chain only; also called He Ab T335_13S

target: T1, FcγRIIa R extracellular domain with …; test: SPR (Biacore), relative FcγRIIa R binding, GpH7-A5/GpH7-B3/GpL16-k0 = 100

Question: For B1, which He/Con_2aR is on record?
Answer: 114 % of control

Question: With B2 as the binder, how does the He/Con_2aR read?
Answer: 110 % of control

Question: Which He/Con_2aR does the source give for B3 here?
Answer: 122 % of control

Question: How did the He/Con_2aR turn out when B4 was run?
Answer: 135 % of control

Question: Which He/Con_2aR does the source give for B5 here?
Answer: 111 % of control

Question: B6 was tested. Which He/Con_2aR did it give?
Answer: 116 % of control

Question: B7 was tested. Which He/Con_2aR did it give?
Answer: 122 % of control

Question: Which He/Con_2aR does the source give for B8 here?
Answer: 173 % of control

Question: For B9, which He/Con_2aR is on record?
Answer: 135 % of control

Question: Which He/Con_2aR does the source give for B10 here?
Answer: 105 % of control

Question: How did the He/Con_2aR turn out when B11 was run?
Answer: 123 % of control

Question: How did the He/Con_2aR turn out when B12 was run?
Answer: 106 % of control

Question: For B13, which He/Con_2aR is on record?
Answer: 105 % of control

Question: How did the He/Con_2aR turn out when B14 was run?
Answer: 109 % of control

Question: With B15 as the binder, how does the He/Con_2aR read?
Answer: 115 % of control

Question: Which He/Con_2aR does the source give for B16 here?
Answer: 112 % of control

Question: B17 was tested. Which He/Con_2aR did it give?
Answer: 105 % of control

Question: For B18, which He/Con_2aR is on record?
Answer: 109 % of control

Question: For B19, which He/Con_2aR is on record?
Answer: 107 % of control

Question: For B20, which He/Con_2aR is on record?
Answer: 106 % of control

Question: B21 was tested. Which He/Con_2aR did it give?
Answer: 110 % of control

Question: Which He/Con_2aR does the source give for B22 here?
Answer: 102 % of control

Question: For B23, which He/Con_2aR is on record?
Answer: 104 % of control

Question: B24 was tested. Which He/Con_2aR did it give?
Answer: 109 % of control

Question: How did the He/Con_2aR turn out when B25 was run?
Answer: 111 % of control

Question: With B26 as the binder, how does the He/Con_2aR read?
Answer: 110 % of control
